From the supplement of paper PMC10567573

B1: ALDH8A1 (parent)
chain: FTGSQPTAERITQLSAPHCKKLSL
B2: EPB41L3 (parent)
chain: GSKFRYSGRTQAQTRRASALIDRP

Variants of: B1
Experiment: protein stability index of a GFP-peptide fusion (GPS, HEK-293T) (PSI 1-6); higher = more stable
Settings: c terminus: a fixed tail appended
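Note: lentivirally expressed fusions sorted by FACS into six bins by GFP to DsRed ratio, PSI derived from sequencing read proportions per bin multiplied by bin number.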

Row | Variant | protein stability index
1 | A16E | 2.26
2 | A16R | 2.43
3 | A16M | 1.91
4 | A16G | 2.5
5 | A16P | 2.39
6 | A16N | 2.58
7 | A16D | 2.52
8 | A16Y | 2.05
9 | E9P | 2.05
10 | E9Y | 3.14
11 | E9M | 1.37
12 | E9L | 3.09
13 | I11Y | 2.18
14 | I11R | 2.81
15 | I11H | 2.96
16 | I11P | 3.32
17 | A8D | 2.16
18 | A8C | 2.09
19 | A8S | 1.9
20 | A8V | 2.45

Row | Variant | protein stability index
21 | L22H | 2.29
22 | L22M | 2.14
23 | L22N | 2.54
24 | L22D | 2.67
25 | L22A | 2.85
26 | G3F | 1.97
27 | G3Y | 2.54
28 | G3I | 2.77
29 | G3E | 3.56
30 | G3L | 2.6
31 | T7P | 2.67
32 | T7E | 2.62
33 | T7F | 2.99
34 | T7Q | 2.86
35 | T7H | 2.02
36 | T7W | 1.2
37 | P17A | 2.49
38 | P17E | 2.77
39 | P17V | 1.96
40 | P17H | 2.34

Row | Variant | protein stability index
41 | P6G | 1.96
42 | P6L | 2.04
43 | P6D | 2.43
44 | P6C | 2.42
45 | P6M | 2.56
46 | P6A | 1.94
47 | P6E | 2.79
48 | L14F | 1.79
49 | L14M | 1.86
50 | L14C | 1.79
51 | L14W | 2.2
52 | L14R | 2.37
53 | L14Y | 2.39
54 | L14E | 3.18
55 | L14N | 2.4
56 | Q13D | 2.61
57 | Q13C | 2
58 | Q13F | 2.94
59 | Q13S | 2.12

Variants of: B2
Experiment: as above
Settings: c terminus: a fixed tail appended

Row | Variant | protein stability index
60 | S18F | 2.16
61 | A17M | 3.02
62 | R23Y | 2.5
63 | R23G | 3.01
64 | T14G | 3.17
65 | T14W | 2.22
66 | A19Q | 3.22
67 | A19D | 3.6
68 | F4E | 3.82
69 | A12P | 3.17
70 | A12M | 2.73
71 | A12C | 3.32
72 | Q11E | 3.29
73 | Q11I | 2.95
74 | Q11W | 1.75
75 | G8T | 4.1
76 | T10F | 2.68
77 | L20H | 3.37
78 | R15K | 2.83
79 | R5C | 2.67
80 | R5Y | 2.82
81 | S7I | 1.95
82 | S2F | 2.55
83 | I21A | 3.78
84 | I21Q | 3.06
